In patent US20240425575A1 one finds IC50 of inhibition of AKT phosphorylation of human ANG2-dependent HUVEC cells and IC50 data, which are given here for one substance.

In experiment [1] the target is human ANG2 protein (623-AN-025/CF, R&D) (human) (UniProt O15123). As to the kind of experiment: cell-based or functional assay.
For experiment [2] the target is unchanged. As to the kind of experiment: flow cytometry, inhibition of human ANG2 (10 µg/mL) binding to HUVEC cells. Background: A flow cytometer gives signals particle by particle.

What is called IC50 is the point on the concentration scale where inhibition reaches its midpoint. A high value points to lower potency.

human ANG2 protein (623-AN-025/CF, R&D) (human), sequence (O15123 19-496 limits assumed): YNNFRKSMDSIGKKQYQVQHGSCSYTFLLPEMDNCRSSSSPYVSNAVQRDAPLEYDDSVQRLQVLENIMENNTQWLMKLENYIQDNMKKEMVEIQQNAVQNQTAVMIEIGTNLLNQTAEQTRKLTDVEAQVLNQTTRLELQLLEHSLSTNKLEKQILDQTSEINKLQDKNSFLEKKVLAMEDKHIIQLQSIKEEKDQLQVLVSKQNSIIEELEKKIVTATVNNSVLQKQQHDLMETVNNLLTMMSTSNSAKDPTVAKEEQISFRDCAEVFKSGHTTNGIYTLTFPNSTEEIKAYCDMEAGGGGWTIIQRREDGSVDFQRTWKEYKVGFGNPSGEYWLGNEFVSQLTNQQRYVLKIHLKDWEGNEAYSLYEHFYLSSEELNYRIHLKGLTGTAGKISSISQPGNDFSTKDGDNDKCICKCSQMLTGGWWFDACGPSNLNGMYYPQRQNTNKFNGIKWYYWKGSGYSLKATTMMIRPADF

“RG7716 (ATAD00534, Atagenix) (bispecific antibody)” showed an IC50 of inhibition of AKT phosphorylation of human ANG2-dependent HUVEC cells in experiment [1] of 27.3 nM. Besides, the IC50 in experiment [2] came to 53.9 nM.
